Experimental data as given in paper PMC8142252, “The Arabidopsis thaliana chloroplast division protein FtsZ1 counterbalances FtsZ2 filament stability in vitro” (The Journal of Biological Chemistry, 2021).

Target: T1, AtFtsZ2 (Arabidopsis thaliana FtsZ2-1, full-length mature protein lacking its transit peptide) (Arabidopsis thaliana, UniProt O82533 49-478)
T1 construct: Purified AtFtsZ2 runs as a doublet on SDS-PAGE; also called AtFtsZ2-1; source: E. coli DE3 Rosetta cells overexpressing the E. coli ftsQAZ operon, purified (Ni-NTA); not shown: His6, C-terminal, kept
T1 sequence (looked up): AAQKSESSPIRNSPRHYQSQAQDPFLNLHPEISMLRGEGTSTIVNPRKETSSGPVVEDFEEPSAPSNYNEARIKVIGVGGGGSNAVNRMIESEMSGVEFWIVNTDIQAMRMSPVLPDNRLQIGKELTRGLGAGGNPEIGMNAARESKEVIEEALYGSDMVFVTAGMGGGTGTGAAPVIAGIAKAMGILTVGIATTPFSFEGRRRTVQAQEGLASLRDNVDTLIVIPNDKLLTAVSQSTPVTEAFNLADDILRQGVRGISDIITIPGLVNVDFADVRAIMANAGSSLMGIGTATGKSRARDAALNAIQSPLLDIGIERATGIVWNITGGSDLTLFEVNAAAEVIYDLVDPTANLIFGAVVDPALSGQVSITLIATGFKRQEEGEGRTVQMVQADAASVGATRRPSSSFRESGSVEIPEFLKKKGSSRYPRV
Assay: 90° light scattering; 5 μM AtFtsZ2 (or AtFtsZ2core) mixed with AtFtsZ1, AtFtsZ1 D275A (or AtFtsZ1core) at various ratios before start, HMK buffer, room temperature, started by 10 μM or 500 μM GTP
Settings: both partners purified

binding result: binds
B1: AtFtsZ1 (Arabidopsis thaliana FtsZ1-1, full-length mature protein lacking its transit peptide) (natural protein, UniProt Q42545 58-433, looked up)
chain: RSKSMRLRCSFSPMESARIKVIGVGGGGNNAVNRMISSGLQSVDFYAINTDSQALLQSSAENPLQIGELLTRGLGTGGNPLLGEQAAEESKDAIANALKGSDLVFITAGMGGGTGSGAAPVVAQISKDAGYLTVGVVTYPFSFEGRKRSLQALEAIEKLQKNVDTLIVIPNDRLLDIADEQTPLQDAFLLADDVLRQGVQGISDIITIPGLVNVDFADVKAVMKDSGTAMLGVGVSSSKNRAEEAAEQATLAPLIGSSIQSATGVVYNITGGKDITLQEVNRVSQVVTSLADPSANIIFGAVVDDRYTGEIHVTIIATGFSQSFQKTLLTDPRAAKLLDKMGSSGQQENKGMSLPHQKQSPSTISTKSSSPRRLFF
notes: also called AtFtsZ1-1; source: E. coli DE3 Rosetta cells overexpressing the E. coli ftsQAZ operon, purified (Ni-NTA); not shown: His6, C-terminal, kept
